Reference: the Human Domainome abundance scans (Beltran et al. 2025)
± gives the uncertainty stated by the source.

B1: POU domain, class 2, transcription factor 1, residues 285 to 354; numbered along this chain, P14859 (parent)
chain: LEELEQFAKTFKQRRIKLGFTQGDVGLAMGKLYGNDFSQTTISRFEALNLSFKNMCKLKPLLEKWLNDAE

Variants of: B1
Assay: abundance fitness (aPCA) (normalised: wild type 0, dead -1); higher = more abundant; growth selection in yeast, the domain comes from the species named
Conditions: Homo sapiens

Variant | abundance fitness
L18H | -0.277 ± 0.12
L18Y | -0.041 ± 0.057
L18P | -0.955 ± 0.17
L18S | -0.094 ± 0.047
L18V | -0.192 ± 0.034
L18E | -0.326 ± 0.078
L18W | -0.237 ± 0.1
L18C | -0.1 ± 0.066
L18D | -0.601 ± 0.099
L18A | -0.046 ± 0.04
L18N | -0.408 ± 0.12
L18T | -0.386 ± 0.073
L18M | -0.067 ± 0.083
L18I | -0.261 ± 0.1
L18R | -0.143 ± 0.072
L18G | -0.312 ± 0.061
T21K | -0.065 ± 0.033
T21W | -0.753 ± 0.07
T21V | -0.482 ± 0.04
T21F | -0.693 ± 0.045
T21A | -0.158 ± 0.04
T21D | -0.191 ± 0.088
T21H | -0.191 ± 0.035
T21G | -0.113 ± 0.035

Variant | abundance fitness
T21L | -0.284 ± 0.019
T21Q | -0.131 ± 0.031
T21R | -0.198 ± 0.035
T21I | -0.598 ± 0.055
T21P | -0.423 ± 0.035
T21N | -0.029 ± 0.055
T21E | -0.191 ± 0.046
K17D | 0.001 ± 0.082
K17V | -0.06 ± 0.024
K17S | -0.003 ± 0.019
K17N | 0.076 ± 0.11
K17Q | -0.023 ± 0.033
K17I | -0.1 ± 0.059
K17W | -0.037 ± 0.039
K17E | 0.01 ± 0.039
K17G | -0.027 ± 0.065
K17C | -0.046 ± 0.045
K17M | -0.007 ± 0.024
K17Y | -0.07 ± 0.04
K17L | -0.016 ± 0.019
K17P | -0.966 ± 0.081
K17R | -0.166 ± 0.063
K17T | -0.029 ± 0.028
Q13E | -0.01 ± 0.057

Variant | abundance fitness
Q13Y | 0.011 ± 0.1
Q13N | -0.049 ± 0.14
Q13H | 0.015 ± 0.11
Q13F | -0.054 ± 0.05
Q13W | -0.188 ± 0.035
Q13T | 0.023 ± 0.037
Q13S | -0.005 ± 0.027
Q13K | 0.042 ± 0.056
Q13M | -0.024 ± 0.022
Q13R | -0.061 ± 0.042
Q13C | -0.235 ± 0.089
Q13I | -0.121 ± 0.07
Q13V | -0.014 ± 0.023
Q13P | -0.202 ± 0.065
Q13L | -0.005 ± 0.017
R15Y | -0.387 ± 0.12
R15W | -0.953 ± 0.053
R15F | -0.533 ± 0.077
R15N | -0.902 ± 0.38
R15E | -0.971 ± 0.091
R15K | -1.09 ± 0.11
R15L | -0.826 ± 0.025
R15C | -0.655 ± 0.086
R15H | -0.725 ± 0.14

Variant | abundance fitness
R15P | -1.09 ± 0.15
R15T | -1.03 ± 0.1
R15G | -1.03 ± 0.05
R15A | -0.835 ± 0.063
R15V | -0.815 ± 0.042
R15I | -1.1 ± 0.48
R15S | -0.974 ± 0.054
I16K | -0.021 ± 0.027
I16G | -0.207 ± 0.11
I16W | -0.269 ± 0.076
I16R | -0.169 ± 0.049
I16F | -0.131 ± 0.025
I16E | 0.073 ± 0.082
I16M | 0.004 ± 0.021
I16C | -0.325 ± 0.12
I16P | -1.07 ± 0.17
I16T | -0.03 ± 0.049
I16S | -0.018 ± 0.042
I16L | -0.007 ± 0.017
I16Y | -0.117 ± 0.031
I16D | -0.2 ± 0.3
I16V | -0.017 ± 0.047
I16A | -0.039 ± 0.078
I16N | -0.105 ± 0.047

Variant | abundance fitness
F20K | -0.073 ± 0.046
F20N | -0.197 ± 0.045
F20P | -0.827 ± 0.045
F20L | -0.081 ± 0.039
F20H | -0.045 ± 0.028
F20Y | 0.06 ± 0.062
F20V | -0.024 ± 0.039
F20S | -0.197 ± 0.036
F20A | -0.035 ± 0.021
F20E | -0.372 ± 0.031
F20R | -0.092 ± 0.022
F20W | 0.004 ± 0.047
F20C | -0.016 ± 0.065
F20D | -0.706 ± 0.044
F20T | -0.253 ± 0.032
F20Q | -0.038 ± 0.031
G23S | -0.021 ± 0.021
G23C | -0.073 ± 0.059
G23Q | -0.023 ± 0.036
G23R | -0.071 ± 0.047
G23N | 0.013 ± 0.046
G23M | -0.023 ± 0.043
G23E | 0.017 ± 0.088
G23P | -0.11 ± 0.022

Variant | abundance fitness
G23H | 0.013 ± 0.028
G23L | -0.009 ± 0.02
G23D | 0.023 ± 0.074
G23A | 0.025 ± 0.042
G23K | 0.065 ± 0.055
Q22M | -0.134 ± 0.051
Q22H | -0.118 ± 0.063
Q22K | 0.048 ± 0.086
Q22G | -0.099 ± 0.022
Q22W | -0.072 ± 0.032
Q22N | -0.119 ± 0.075
Q22P | 0.001 ± 0.031
Q22Y | -0.029 ± 0.06
Q22C | 0.031 ± 0.025
Q22E | -0.024 ± 0.043
Q22A | -0.014 ± 0.024
Q22T | -0.011 ± 0.041
Q22S | -0.005 ± 0.028
Q22R | -0.011 ± 0.024
Q22L | -0.001 ± 0.024
Q22F | -0.129 ± 0.038
Q22D | -0.035 ± 0.054
Q22V | 0 ± 0.022
Q22I | -0.076 ± 0.045

Variant | abundance fitness
R14N | -0.29 ± 0.11
R14F | -0.32 ± 0.068
R14Q | -0.1 ± 0.075
R14Y | -0.384 ± 0.14
R14E | 0.028 ± 0.055
R14C | -0.233 ± 0.12
R14G | -0.067 ± 0.046
R14A | -0.048 ± 0.036
R14V | -0.004 ± 0.039
R14H | -0.156 ± 0.066
R14T | -0.024 ± 0.059
R14P | -1.05 ± 0.14
R14L | -0.105 ± 0.034
R14K | 0.004 ± 0.089
R14M | -0.089 ± 0.057
R14S | -0.052 ± 0.04
R14W | -0.296 ± 0.35
G19D | -0.314 ± 0.22
G19V | -0.214 ± 0.44
G19A | -0.391 ± 0.16
G19M | -0.471 ± 0.26
G19S | -0.288 ± 0.11
G19H | -0.564 ± 0.36
